Results taken from patent US20250027955A1, “ETHYLENE RECEPTORS AND BINDING DOMAINS WITH MODIFIED BINDING KINETICS FOR ETHYLENE” (Trustees of Dartmouth College, priority 2022, published 2025).
Like-named read-outs stand apart in the source and are kept apart here.

Columns and labels:
[1] = test system: dark-grown Arabidopsis seedlings; experiment: Silver sensitivity assay: effect of silver on ethylene response of dark-grown seedlings; type: in vivo
Source text: As an initial test for the feasibility of the first hypothesis, Applicant asked if ETR1^D25N could still bind a metal cofactor, and therefore potentially ethylene, in planta. For this purpose, Applicant examined the effects of silver (Ag) on ethylene sensitivity. Silver is thought to substitute for the copper cofactor and, although receptors containing silver can still bind ethylene, they no longer transmit the signal, resulting in ethylene insensitivity.

[2] = test system: OSR1, ERF1, EXP5 and EXPb1 expression; experiment: Ethylene-dependent gene expression by RT-qPCR; type: in vivo, Arabidopsis; conditions: 0 or 1 μL L^−1 ethylene for 2 hr
Experimental: To examine the short-term molecular response, Applicant characterized ethylene-dependent gene expression for the ETR1 Asp25 mutants (FIG. 6B). Expression of OSR1 and ERF1 is induced, whereas the expression of EXP5 and EXPb1 is repressed, in response to ethylene.
RNA isolation and RT-qPCR was performed with three biological replicates and two technical replicates of each.

[3] = test system: Arabidopsis seedlings, etr1 etr2 ein4 background; conditions: previously reported; cited from earlier work
[4] = Copper binding assay: purified ETR1 transmembrane domain titrated to BCA2-Cu(I) complex, absorbance at 562 nm; conditions: ETR1-TMD expressed and purified from E. coli; Cu(I) stabilized by BCA
Source text: Cu(I) was stabilized by the copper chelator BCA, and then titrated with increasing ETR1 protein concentration.
Titration curves were corrected for nonspecific binding observed with chemically and thermally denatured receptor to maximize signal to background levels.

[5] = test system: Arabidopsis seedlings, etr1 etr2 ein4 background; experiment: Short-term kinetic analysis of hypocotyl growth response to ethylene; type: in vivo; conditions: 10 μL/L ethylene for 2 hr
Experimental: Based on the differences Applicant uncovered for the long-term ethylene growth responses for the Asp25 mutants, Applicant also analyzed their short-term hypocotyl growth and molecular responses to ethylene. To this end, Applicant performed a short-term kinetic analysis, analyzing the initial hypocotyl growth inhibition in response to 10 μL/L ethylene and the growth recovery following the removal of ethylene after two hours of treatment (FIG. 6A).
(§1) All Arabidopsis lines were of the Columbia (Col-0) accession. The etr1-1 and etr1-6 etr2-3 ein4-4 mutant lines have been described. Analysis of the triple response of dark-grown Arabidopsis seedlings to ethylene was performed as described previously. Briefly, seedlings were grown at 22° C. on vertically oriented plates on half-strength Murashige and Skoog basal medium with Gamborg's vitamins (pH 5.75; Sigma), 0.8% (w/v) agar, and 5 μM aminoethoxyvinylglycine (AVG) to inhibit ethylene biosynthesis. The stratified seed was exposed to light for 8 hr and then moved to the dark in the presence or absence of ethylene, with analysis of the seedling growth being performed following 4 days total growth. For short-term kinetic analysis of dark-grown seedlings, time-lapse imaging and growth rate analysis of hypocotyls were carried out as described previously.

[6] = Saturable [14C]ethylene binding to yeast transgenically expressing ETR1; parameters: species or system Saccharomyces cerevisiae; conditions: 0.21 μL L^−1 [14C]ethylene; for saturable [14C]ethylene binding: with or without excess [12C]ethylene
Source text: Saturable ethylene binding of the ETR1 Asp25 mutants was examined by heterologous expression in yeast, with binding to [^14C]ethylene determined in the presence or absence of excess [^12C]ethylene (FIG. 2C). […] This included the ETR1^D25A mutant, consistent with previous observations, as well as for the ETR1^D25N and ETR1^D25Q mutants (FIG. 2C). Results from the ethylene binding assay are therefore consistent with the negative charge at D25 playing a significant role in mediating high-affinity ethylene binding.
[^14C]ethylene (specific activity=116 mCi/mmol) was obtained from ViTrax Radiochemicals (Placentia, CA) and trapped as the mercuric perchlorate complex as described. For ethylene binding assays in yeast, ETR1 was expressed in the yeast Saccharomyces cerevisiae (strain FY834) using the vector pYcDE-2 and a constitutive ADC1 promoter. The yeast growth media was supplemented with 40 μg L^−1 copper sulfate. Saturable ethylene binding to yeast was determined by analyzing binding of 0.3 g yeast per sample to 0.21 μL L^−1 [^14C]ethylene, in the presence or absence of excess [^12C]ethylene.

[7] = test system: Arabidopsis seedlings, etr1 etr2 ein4 background; experiment: Triple-response hypocotyl growth assay of dark-grown seedlings expressing ETR1 transgenes; type: in vivo; conditions: for rescue of growth of etr1 etr2 ein4 triple mutant in air: absence of ethylene, hypocotyl and adult shoot growth; for hypocotyl growth response to ethylene: dark-grown seedlings, 0 or 1 μL L^−1 ethylene
Experimental: Functionality of the ETR1 Asp25 mutants was tested by transgenic expression in the etr1 etr2 ein4 Arabidopsis background.
Applicant can thus exploit the triple mutant to assess the ability of the ETR1 transgenes to rescue growth in the absence of ethylene as well as their ability to mediate a response to ethylene. Such an analysis indicates whether the encoded receptors are able to assume the ‘on’ conformation that represses the ethylene response in air, as well as the ‘off’ conformation that occurs in response to ethylene binding.
as §1

[8] = previously reported, cited from earlier work

## [Ag] [silver, reference compound]
[1]; etr1 etr2 ein4, 10 μL/L ethylene
  effect of silver on ethylene response of etr1 etr2 ein4 triple mutant: still responsive to ethylene
[1]; wild-type, 10 μL/L ethylene
  effect of silver on ethylene response of wild-type seedlings: blocked

B1: ETR1^D25A: ETR1 with site-directed mutation of Asp25 to Ala (protein, UniProt P49333 1-738, looked up, variant D25A)
Ethylene receptor 1: MEVCNCIEPQWPADELLMKYQYISAFFIAIAYFSIPLELIYFVKKSAVFPYRWVLVQFGAFIVLCGATHLINLWTFTTHSRTVALVMTTAKVLTAVVSCATALMLVHIIPDLLSVKTRELFLKNKAAELDREMGLIRTQEETGRHVRMLTHEIRSTLDRHTILKTTLVELGRTLALEECALWMPTRTGLELQLSYTLRHQHPVEYTVPIQLPVINQVFGTSRAVKISPNSPVARLRPVSGKYMLGEVVAVRVPLLHLSNFQINDWPELSTKRYALMVLMLPSDSARQWHVHELELVEVVADQVAVALSHAAILEESMRARDLLMEQNVALDLARREAETAIRARNDFLAVMNHEMRTPMHAIIALSSLLQETELTPEQRLMVETILKSSNLLATLMNDVLDLSRLEDGSLQLELGTFNLHTLFREVLNLIKPIAVVKKLPITLNLAPDLPEFVVGDEKRLMQIILNIVGNAVKFSKQGSISVTALVTKSDTRAADFFVVPTGSHFYLRVKVKDSGAGINPQDIPKIFTKFAQTQSLATRSSGGSGLGLAISKRFVNLMEGNIWIESDGLGKGCTAIFDVKLGISERSNESKQSGIPKVPAIPRHSNFTGLKVLVMDENGVSRMVTKGLLVHLGCEVTTVSSNEECLRVVSHEHKVVFMDVCMPGVENYQIALRIHEKFTKQRHQRPLLVALSGNTDKSTKEKCMSFGLDGVLLKPVSLDNIRDVLSDLLEPRVLYEGM
[2]
  molecular response to ethylene (ethylene-dependent gene expression): various levels of hyposensitivity
[3]
  ethylene sensitivity of plants (previous studies): confers dominant ethylene-insensitivity
[4]
  copper binding: no copper binding
[5]
  short-term hypocotyl growth response to ethylene: exhibit ethylene insensitivity
[6]
  saturable [14C]ethylene binding: No saturable [^14C]ethylene binding was detected
[7]
  rescue of growth of etr1 etr2 ein4 triple mutant in air: rescued growth
  hypocotyl growth response to ethylene: conferred ethylene insensitivity
[8]
  ethylene binding (previous studies): eliminate ethylene binding
[8]; listed as D25A
  ethylene binding (previous studies): abolishes ethylene binding

B2: ETR1^K91A: ETR1 with Lys91 replaced by smaller nonpolar sidechain (Ala) (protein, UniProt P49333 1-738, looked up, variant K91A)
Ethylene receptor 1: MEVCNCIEPQWPADELLMKYQYISDFFIAIAYFSIPLELIYFVKKSAVFPYRWVLVQFGAFIVLCGATHLINLWTFTTHSRTVALVMTTAAVLTAVVSCATALMLVHIIPDLLSVKTRELFLKNKAAELDREMGLIRTQEETGRHVRMLTHEIRSTLDRHTILKTTLVELGRTLALEECALWMPTRTGLELQLSYTLRHQHPVEYTVPIQLPVINQVFGTSRAVKISPNSPVARLRPVSGKYMLGEVVAVRVPLLHLSNFQINDWPELSTKRYALMVLMLPSDSARQWHVHELELVEVVADQVAVALSHAAILEESMRARDLLMEQNVALDLARREAETAIRARNDFLAVMNHEMRTPMHAIIALSSLLQETELTPEQRLMVETILKSSNLLATLMNDVLDLSRLEDGSLQLELGTFNLHTLFREVLNLIKPIAVVKKLPITLNLAPDLPEFVVGDEKRLMQIILNIVGNAVKFSKQGSISVTALVTKSDTRAADFFVVPTGSHFYLRVKVKDSGAGINPQDIPKIFTKFAQTQSLATRSSGGSGLGLAISKRFVNLMEGNIWIESDGLGKGCTAIFDVKLGISERSNESKQSGIPKVPAIPRHSNFTGLKVLVMDENGVSRMVTKGLLVHLGCEVTTVSSNEECLRVVSHEHKVVFMDVCMPGVENYQIALRIHEKFTKQRHQRPLLVALSGNTDKSTKEKCMSFGLDGVLLKPVSLDNIRDVLSDLLEPRVLYEGM
[3]
  ethylene sensitivity of plants (previous studies): confer ethylene insensitivity
[6]; % of wild-type binding
  ethylene binding relative to ETR1^wt: 1%
[7]
  hypocotyl growth response to ethylene: a phenotype similar to that of the ETR1^K91M mutant or complete ethylene insensitivity
[8]
  ethylene binding (previous studies): low level of ethylene binding ability

B3: ETR1^D25Q: ETR1 with Asp25 replaced by Gln (protein, UniProt P49333 1-738, looked up, variant D25Q)
Ethylene receptor 1: MEVCNCIEPQWPADELLMKYQYISQFFIAIAYFSIPLELIYFVKKSAVFPYRWVLVQFGAFIVLCGATHLINLWTFTTHSRTVALVMTTAKVLTAVVSCATALMLVHIIPDLLSVKTRELFLKNKAAELDREMGLIRTQEETGRHVRMLTHEIRSTLDRHTILKTTLVELGRTLALEECALWMPTRTGLELQLSYTLRHQHPVEYTVPIQLPVINQVFGTSRAVKISPNSPVARLRPVSGKYMLGEVVAVRVPLLHLSNFQINDWPELSTKRYALMVLMLPSDSARQWHVHELELVEVVADQVAVALSHAAILEESMRARDLLMEQNVALDLARREAETAIRARNDFLAVMNHEMRTPMHAIIALSSLLQETELTPEQRLMVETILKSSNLLATLMNDVLDLSRLEDGSLQLELGTFNLHTLFREVLNLIKPIAVVKKLPITLNLAPDLPEFVVGDEKRLMQIILNIVGNAVKFSKQGSISVTALVTKSDTRAADFFVVPTGSHFYLRVKVKDSGAGINPQDIPKIFTKFAQTQSLATRSSGGSGLGLAISKRFVNLMEGNIWIESDGLGKGCTAIFDVKLGISERSNESKQSGIPKVPAIPRHSNFTGLKVLVMDENGVSRMVTKGLLVHLGCEVTTVSSNEECLRVVSHEHKVVFMDVCMPGVENYQIALRIHEKFTKQRHQRPLLVALSGNTDKSTKEKCMSFGLDGVLLKPVSLDNIRDVLSDLLEPRVLYEGM
[2]
  molecular response to ethylene (ethylene-dependent gene expression): various levels of hyposensitivity
[4]
  copper binding: minimal residual binding
[5]
  short-term hypocotyl growth response to ethylene: exhibit ethylene insensitivity
[6]
  saturable [14C]ethylene binding: No saturable [^14C]ethylene binding was detected
[7]
  rescue of growth of etr1 etr2 ein4 triple mutant in air: rescued growth
  hypocotyl growth response to ethylene: conferred ethylene insensitivity

B4: ETR1^D25E: ETR1 with Asp25 replaced by Glu (protein, UniProt P49333 1-738, looked up, variant D25E)
Ethylene receptor 1: MEVCNCIEPQWPADELLMKYQYISEFFIAIAYFSIPLELIYFVKKSAVFPYRWVLVQFGAFIVLCGATHLINLWTFTTHSRTVALVMTTAKVLTAVVSCATALMLVHIIPDLLSVKTRELFLKNKAAELDREMGLIRTQEETGRHVRMLTHEIRSTLDRHTILKTTLVELGRTLALEECALWMPTRTGLELQLSYTLRHQHPVEYTVPIQLPVINQVFGTSRAVKISPNSPVARLRPVSGKYMLGEVVAVRVPLLHLSNFQINDWPELSTKRYALMVLMLPSDSARQWHVHELELVEVVADQVAVALSHAAILEESMRARDLLMEQNVALDLARREAETAIRARNDFLAVMNHEMRTPMHAIIALSSLLQETELTPEQRLMVETILKSSNLLATLMNDVLDLSRLEDGSLQLELGTFNLHTLFREVLNLIKPIAVVKKLPITLNLAPDLPEFVVGDEKRLMQIILNIVGNAVKFSKQGSISVTALVTKSDTRAADFFVVPTGSHFYLRVKVKDSGAGINPQDIPKIFTKFAQTQSLATRSSGGSGLGLAISKRFVNLMEGNIWIESDGLGKGCTAIFDVKLGISERSNESKQSGIPKVPAIPRHSNFTGLKVLVMDENGVSRMVTKGLLVHLGCEVTTVSSNEECLRVVSHEHKVVFMDVCMPGVENYQIALRIHEKFTKQRHQRPLLVALSGNTDKSTKEKCMSFGLDGVLLKPVSLDNIRDVLSDLLEPRVLYEGM
[2]
  molecular response to ethylene (ethylene-dependent gene expression): various levels of hyposensitivity
[4]
  copper binding: minimal residual binding
[5]
  short-term hypocotyl growth response to ethylene: exhibit ethylene insensitivity
[6]
  saturable [14C]ethylene binding: substantially reduced
[7]
  rescue of growth of etr1 etr2 ein4 triple mutant in air: rescued growth
  hypocotyl growth response to ethylene: conferred ethylene insensitivity
